This is an account of results in the RNAGym collection of RNA variant scans (doi:10.7554/elife.80360).

First the molecules themselves.
B1: Hairpin Ribozyme (parent)
chain: GUCCUCUUUCACGUGCGCGUGAAAGAGAGAAGUGAACCAGAGAAACACACGUUGUGGUAUAUUACCUGGUA

Variants of B1 are the subject of the series. The experiment in a line: self-cleavage, relative activity (ratio to wild type); higher = more cleavage; co-transcriptional.
Take GUCCUCUUUCACGUGCGCGUGAAAGAGAGAAGUGAACCAGAGAGACACACGUUGCGGUAUAUUACCUGGUA: the self-cleavage amounted to 0.0374. As for GUCCUCUUUCACGUGCGCGUGAAAGAGAGAAGUGAACCAGAGAUACACACGUUGUGGUAUAUUACCUGGCA, the self-cleavage was determined as 0.0872. Turning to GUCCUCUUUCACGUGCGCGUGAAAGAGAGAAGUGAACCAGAGAUACACACGUUGUGGUAUAUUACCUGGAA, the self-cleavage turned out to be 0.0951. As for GUCCUCUUUCACGUGCGCGUGAAAGAGAGAAGUGAACCAGAGAACCACACGUUGUGGUAGAUUACCUGGUA, the figure is 0.165; as for GUCCUCUUUCACGUGCGCGUGAAAGAGAGAAGUGAACCAGAGAACCACACGUUCUGGUAUAUUACCUGGUA, 0.137. As for GUCCUCUUUCACGUGCGCGUGAAAGAGAGAAGUGAACCAGAGAGACACACGUUGUGGUAUAUUACCUGGAA, the self-cleavage worked out at 0. As for GUCCUCUUUCACGUGCGCGUGAAAGAGAGAAGUGAACCAGAGAUACACACGUUGUGGUAUAUUACGUGGUA, the figure is 0.183; as for GUCCUCUUUCACGUGCGCGUGAAAGAGAGAAGUGAACCAGAGAACCACACGUUGUGGUAUAAUACCUGGUA, 0.332.

As for GUCCUCUUUCACGUGCGCGUGAAAGAGAGAAGUGAACCAGAGAACCACACGUUGUGGUAUAGUACCUGGUA, the self-cleavage is 0.0741. For GUCCUCUUUCACGUGCGCGUGAAAGAGAGAAGUGAACCAGAGAUCCACACGUUGUGGUAUAUUACCUGGUA, the self-cleavage was found to be 0.321. For the variant GUCCUCUUUCACGUGCGCGUGAAAGAGAGAAGUGAACCAGAGAAGCACACGUUGUGGUUUAUUACCUGGUA, the self-cleavage stood at 0.0542.

Take GUCCUCUUUCACGUGCGCGUGAAAGAGAGAAGUGAACCAGAGAAGCACACGUUGUGGUGUAUUACCUGGUA: the self-cleavage worked out at 0.174. Under GUCCUCUUUCACGUGCGCGUGAAAGAGAGAAGUGAACCAGAGAACCACACGUUGUGAUAUAUUACCUGGUA stands 0.115. Take GUCCUCUUUCACGUGCGCGUGAAAGAGAGAAGUGAACCAGAGAUACUCACGUUGUGGUAUAUUACCUGGUA: the self-cleavage stood at 0.0528. As to GUCCUCUUUCACGUGCGCGUGAAAGAGAGAAGUGAACCAGAGAACCACACGUUGUGGUAUAUUACCUGGGA, the self-cleavage worked out at 0.133. As for GUCCUCUUUCACGUGCGCGUGAAAGAGAGAAGUGAACCAGAGAACCACACGUUGAGGUAUAUUACCUGGUA, the figure is 0.192; as for GUCCUCUUUCACGUGCGCGUGAAAGAGAGAAGUGAACCAGAGAUACACACGUUGUCGUAUAUUACCUGGUA, 0.239; as for GUCCUCUUUCACGUGCGCGUGAAAGAGAGAAGUGAACCAGAGAUACACACGUUGAGGUAUAUUACCUGGUA, 0.282. Take GUCCUCUUUCACGUGCGCGUGAAAGAGAGAAGUGAACCAGAGAACCACACGUCGUGGUAUAUUACCUGGUA: the self-cleavage was 0.0463.

With GUCCUCUUUCACGUGCGCGUGAAAGAGAGAAGUGAACCAGAGAACCACACGUAGUGGUAUAUUACCUGGUA, the self-cleavage was determined as 0.123. Under GUCCUCUUUCACGUGCGCGUGAAAGAGAGAAGUGAACCAGAGAACCACACGUUGUGGUAUAUUACCUGGUC stands 0.453; under GUCCUCUUUCACGUGCGCGUGAAAGAGAGAAGUGAACCAGAGAACCACACGUUGUGGUAUAUUACCUGGUU, 0.184; under GUCCUCUUUCACGUGCGCGUGAAAGAGAGAAGUGAACCAGAGAUACACACGUUGUGGUAUAUUAUCUGGUA, 0.14. As to GUCCUCUUUCACGUGCGCGUGAAAGAGAGAAGUGAACCAGAGAACCACACGUUGUGGUAUAUGACCUGGUA, the self-cleavage was 0.136.

As for GUCCUCUUUCACGUGCGCGUGAAAGAGAGAAGUGAACCAGAGAACCACACGUUGUGGUAUAUCACCUGGUA, the self-cleavage was 0.0707. As to GUCCUCUUUCACGUGCGCGUGAAAGAGAGAAGUGAACCAGAGAACCACACGUUGUGGUAUAUUACCUGUUA, the self-cleavage came out at 0.215. With GUCCUCUUUCACGUGCGCGUGAAAGAGAGAAGUGAACCAGAGAACCACACGUUGUGGUAUAUUACCUGCUA, the self-cleavage turned out to be 0.193.

As for GUCCUCUUUCACGUGCGCGUGAAAGAGAGAAGUGAACCAGAGAGACACACGUUGUGGUAUAUUACCUGCUA, the self-cleavage worked out at 0.196. As for GUCCUCUUUCACGUGCGCGUGAAAGAGAGAAGUGAACCAGAGAGACACACGUUGUGGUAUAUUACCUGUUA, the figure is 0.0884; as for GUCCUCUUUCACGUGCGCGUGAAAGAGAGAAGUGAACCAGAGAAGCACACGUUGUGGUAUAUUACCUGGUC, 0.399; as for GUCCUCUUUCACGUGCGCGUGAAAGAGAGAAGUGAACCAGAGAGACACACGUUGUGGUAUAUUACCUCGUA, 0.244.

As for GUCCUCUUUCACGUGCGCGUGAAAGAGAGAAGUGAACCAGAGAGACACACGUUGUGGUAUAUUACCUAGUA, the self-cleavage worked out at 0.155. Under GUCCUCUUUCACGUGCGCGUGAAAGAGAGAAGUGAACCAGAGAACCACACGUUGUGGCAUAUUACCUGGUA stands 0.0787. As for GUCCUCUUUCACGUGCGCGUGAAAGAGAGAAGUGAACCAGAGAUACACACGAUGUGGUAUAUUACCUGGUA, the figure is 0.237; as for GUCCUCUUUCACGUGCGCGUGAAAGAGAGAAGUGAACCAGAGAAGCUCACGUUGUGGUAUAUUACCUGGUA, 0.113. Take GUCCUCUUUCACGUGCGCGUGAAAGAGAGAAGUGAACCAGAGAAGCCCACGUUGUGGUAUAUUACCUGGUA: the self-cleavage is 0.228. Under GUCCUCUUUCACGUGCGCGUGAAAGAGAGAAGUGAACCAGAGAUACACACGUUGUGGCAUAUUACCUGGUA stands 0.177; under GUCCUCUUUCACGUGCGCGUGAAAGAGAGAAGUGAACCAGAGAUACACACGUUGUGGAAUAUUACCUGGUA, 0.0794.
